Assay results reported in paper doi:10.1101/2021.05.26.445185.

Experiments:
Assay in all cases: single-molecule FRET
Details in all cases: 5' m7GpppAm cap named for viral RNA; 3' poly(A) of unstated length
[1] = biological target: Cy5-eIF4E(S209D);eIF4G(557-1137);eIF4A (Homo sapiens;Homo sapiens;Homo sapiens) (UniProt Q04637)
[2] = tested on: Cy5-eIF4E(S209D) (Homo sapiens)
[3] = biological target: Cy5-eIF4E;eIF4G(557-1137);eIF4A (Homo sapiens;Homo sapiens;Homo sapiens) (UniProt Q04637)
[4] = tested on: Cy5-eIF4E (Homo sapiens)

## capped polyadenylated SARS-CoV-2 5' UTR
[1]
  Kd: 0.078 µM
[2]
  Kd: 0.062 µM
[3]
  Kd: 0.127 µM
[4]
  Kd: 0.074 µM
